The numbers were not newly measured in article PMC2994893, which cites them from elsewhere.

The term Kd denotes a measure of binding affinity in units of concentration.

For the data set, the target named is Lck phospho-Tyr505 motif pTyr505 motif (Homo sapiens) (UniProt P06239).

On to Lck SH2 (from UniProt P06239), for which the Kd was 300 nM.
